# From patent US12472269B2, “Liver-specific inducible promoters and methods of use thereof” (ASKBIO INC., priority 2019, dated 2025)
# B1: PB1-MinTK: promoter: single mouse PBREM element and MinTK minimal promoter, SEQ ID NO: 7 (nucleic acid)
# DNA: TCTGTACTTTCCTGACCTTGGCACAGTGCCACCATCAACTTGCCTGACACCGATCCGGCCCCGCCCAGCGTCTTGTCATTGGCGAATTCGAACACGCAGATGCAGTCGGGGCGGCGCGGTCCGAGGTCCACTTCGCATATTAAGGTGACGCGTGTGGCCTCGAACACCGAGCGACCCTGCAGCGACCCGCTTAACAGCGTCAACAGCGTGCCGCAGATCTCGAGGAGCTTGGCGAGATTTTCAGGAGCTAAGGAAGCTAAAC
# modifications: PB1-MinTK
# Tests used:
# Format in all cases: cell-based, human
# Huh7 cells = experiment: Luciferase expression from PB1-MinTK construct in Huh7 cells transfected with CAR plasmid, induction by TCPOBOP
# Text: • Huh7 cells which are a human liver cell line • DPBS: without CaCl2, without MgCl2 (Gibco, 14190-094) • DMEM (Sigma, D6546) • FBS (Sigma, F9665) • Pen-Strep (Sigma, P4333) • Promega Fugene-HD (E2311) • TCPOBOP (Sigma, T2320) • CITCO (Cayman Chemicals Company, 16027) • pcDNA6 plasmid which contains the β-galactosidase gene used as internal control for transfection efficiency (Thermofisher, V22020) • mouse CAR expression plasmid from Jouan et al, 2016 (BioCat GmbH, EX-Z4288-M51-10-GC). This was used as Huh7 is CAR deficient. • β-galactosidase substrate solution (Thermofisher, 75707/75710) • Pierce BCA kit (23225) • LARII (Dual Luciferase Reporter 1000 assay system, Promega, E1980) • EPO ELISA kit (Abcam, ab119522) Method: Day 1 • Cells were seeded onto a 48 well plate at a density of 25,000 cells/300 μl Day 2 • On the day of transfection, DNA to be transfected (CAR plasmid/PB1-MinTK operably linked with luciferase or EPO/pcDNA6 plasmid for internal control) was diluted to a 100 ng/μl stock solution. Per 48 Well Transfection: • 45 ng of DNA (15 ng of each plasmid, pcDNA6, CAR and test plasmid) was mixed with 4.1 μl of Optimem medium. • 0.5 μl of Fusion HD was mixed with 4 μl of Optimem medium. • These 2 solutions were mixed and incubated at room temperature for 15 minutes. • The final solution was then added to the well drop wise. • 3 hrs after transfection, the inducer TCPOBOP was added to the appropriate wells at the indicated concentration. Day 3 • 24 hrs after induction the media was removed from the cells. • The cells were washed once in 300 μl of DPBS • Cells were lysed using 100 μl of passive lysis buffer and incubation with rocking for 15 minutes • The cell debris was pelleted by centrifugation of the plate at max speed in a benchtop centrifuge for 1 min • For luciferase, 10 μl sample was transferred into white 96-well plate and luminescence measured by injection of 50 μl of LARII substrate. • β-galactosidase activity was measured as per manufacturer's instructions (Mammalian β-Galactosidase Assay Kit, 75707/75710, Thermo Scientific) using 25 μl of lysate. 25 μl of lysate was transferred into a microplate well and mixed with 25 μl of β-galactosidase Assay Reagent, equilibrated to room temperature. The mixture was incubated at 37° C. for 30 min and absorbance measured at 405 nm. • Protein concentration was measured as per manufacturer's instructions (Pierce™ BCA Protein Assay Kit, 23225/23227, Thermo Scientific) using 25 μl of lysate. 25 μl of lysate was transferred into a microplate well and mixed with 200 μl of working solution. The mixture was incubated at 37° C. for 30 min, cooled to room temperature and then absorbance measured around 562 nm. The protein concentration was calculated with respect to protein standard curve prepared from assaying standards with known protein concentration.
# Luciferase readouts were normalised to both β-galactosidase and protein concentration in the lysate to produce normalised relative luminometer units (RLUs).
# To compare across experiments the strength of the promoters was compared to CMV-IE promoter which was driving the same gene as the PBREM-containing constructs, which is included in every experiment.
# The PB1-MinTK construct was cloned into the vector pGL4.10 using the KpnI and NcoI restriction sites. This places the promoters directly upstream of the firefly luciferase reporter gene. The PB1-MinTK construct contains the 51 bp enhancer and the MinTK minimal promoter from Herpes Thymidine kinase gene.
# AXOL ARE-hepatocytes = experiment: Luciferase expression from PBREM promoters in AXOL ARE-hepatocytes, induction by CITCO; settings: 1 μM CITCO
# [1] = tested on: Huh7 and ARE primary cells; experiment: Effect of AAV ITRs: pAAV constructs transfected into Huh7 and ARE primary cells, compared with pGL4.10; settings: mean of 3 biological replicates
# Text: Following from Example 3, it was decided to take PB1-MinTK and PB1-2-MinTk forward for in vivo studies. To facilitate this the two aforementioned constructs were cloned into pAAV vector (Takara, Clontech) to allow for the preparation of AAV viruses. The inserts where cloned using restriction digest of the pAAV plasmid and PCR amplification of the original pGL4.10 constructs.
# We investigated the effect of the Inverted Terminal Repeats (ITRs) on the activity of the promoters. This was done as we have observed interference from the AAV ITRs in other projects. To this end, the pAAV-PB1-MinTk and pAAV-PB1-2-MinTk were transfected into Huh7 and ARE primary cells as previously described and their activity assessed.
# AXOL ARE hepatocytes = experiment: Luciferase expression from pAAV constructs in AXOL ARE hepatocytes without CITCO, with CITCO and after CITCO withdrawal; settings: pAAV vector
# Experimental: Luciferase expression from the PB1-MinTK and PB1-2-MinTK constructs in the pAAV vector in AXOL ARE hepatocytes is inducible by CITCO (1 μM) but reduces after removing CITCO as shown in FIG. 5.
molecule,measurement,setting,value
B1,induction of the promoter (luciferase),"Huh7 cells; 50 nM or 150 nM TCPOBOP, 24 hrs after induction",up to 6 fold
same,response of the promoter (luciferase),Huh7 cells; 250 nM TCPOBOP,did not illicit a response
same,luciferase expression as ratio of CMV-IE promoter,"Huh7 cells; TCPOBOP induced, one PBREM element with MinTK",40%
same,luciferase activity from the promoter (leaky expression),Huh7 cells; cells treated with vehicle (DMSO),very little measurable luciferase activity
same,luciferase activity,"Huh7 cells; no CAR transfected, 150 nM TCPOBOP",no measurable activity
same,luciferase expression,Huh7 cells; presence of CAR and 150 nM TCPOBOP,high
same,expression level compared to CMV-IE,AXOL ARE-hepatocytes,20%
same,induction of luciferase expression,AXOL ARE-hepatocytes; readout 24 hrs after induction,around 7 fold
same,induction of luciferase expression across pGL4.10 and pAAV vectors and cell types,[1],comparable across vectors and cell types
same,luciferase expression with CITCO,AXOL ARE hepatocytes; CITCO (1 μM),inducible
same,activity of the promoter after removal of CITCO,AXOL ARE hepatocytes; CITCO withdrawal,almost baseline levels
